Laboratory results published in the NTF2 design screens of Basanta et al. (2020).

assay: protease stability score; higher = more stable; yeast display proteolysis, trypsin and chymotrypsin;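 further: relative to predicted unfolded state with 0 unfolded-like and 1 meaning tenfold more protease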

Compared with “DEMEDSSRWALEVEMKSFKTGDERSLYEMVDPHAKFEFENHHDHGRSAVELWREQADHMHIDFRLKDMRLVGDFIIIHGVELVHNHVNGRDIDLNLDVRIISRKINGRWILHHVLFR”, “SETEKHLQDIADILVHAEITGDEETLNKMLDPDVRMHNEVNGREYHIHGREEVLKHWREWVTRFKGARIDIEDVHIINGVVHVNMKIIFNGRRIESRLDVEVVNGRVRTIRIHER” is higher in protease stability score: 1.38 for the first, 2.15 for the second.

Compared with “DEEERFAEEAVEIIIRDWMTGDEELLHRNADPHMRIEVGDKTIHGMENFVKFLLEIRMKDSRLRVEDVKHYNGKLHLTFKSEVDGRVNGRRKTLTFDIKMIIEKVDGRWILKTIHIV”, “SEEEDMKRKLAEIFLHNELTGNEDRLMELLDPNTRMEFNGREVHGREQISEVLRRWLEEIRIDDSKLHDIRVINGVAHIDVRLRGTVDGRHTILQVHLYLFVVNGRIKSFRIEIR” is lower in protease stability score: 1.89 for the first, 1.53 for the second.

Compared with “SEEEEEVVRIWKLLLELEKTGNEENIARLADPHVRTDINGQESHGREHLAKLVRHLFHEIRIKDFKIRRLELQGEKLIVDGELHGNYDGQHEVVDTEIHIYVVNGKLKSITVRHH”, “SEDDEHLREFIEIRLHAIETGDWRRMEHLFDPNVRFEFNGVELHGMETVARRLSRIDHEWSEIRINRHRLFNGVLHLDTRLDLRVHVDGKEIRVEHTTRIVILKFNGRWLITEMTIE” is lower in protease stability score: 1.47 for the first, 0.748 for the second.

Going from “SEREEYLEEMFHLFIHYLLTGDWELLINLMDPHARNEIHINGVIFLVHGRELVKEIWERFRKHIRIKHIHVEELRVQGDKAESHTWVHYTIDGRESRVFTRVEIRIIDGVVRRISVEIR” to “DNDQEKIKELARLAEQVMQTGNEKLLRELFDPHARIDIDGKTLHGWKDLLEFTRHELERIDHVVFTVRRVDLQGDKVRVETEVNIDINGKKMTLETTLLIDKFDGRWFLRTIEWE”, the protease stability score rises from 1.72 to 1.8.

Going from “REEESEWKKFFEDLLRSLVTGDESSLSKMIDPHARLDVDGREFHGREHMAHWIVRTLNEHGITIKIEIKDFRLVGDKVHVDGHEDIEVGDKRHERRLHIILLKFNGRWVIKELKVE” to “DEEEKEMRELFHHIIRLIDTGDFDTLKQLADPNTQLHIGDKHSHGREEVVRMNRHWRYHDSKIRDSHVVNGVIHVDAESNLKFDGVRTVTHVRLILYVVDGRLKSLEIRIE”, the protease stability score falls from 2.67 to 0.44.

First: DHLDERAERFFLKLVENLLTGNEEIWEELIDPNMRFHAENHSDHGWEVIRRWMERLIERFDHIEIRVHRLRFQGDKVHSDVRVHYEQGDKREEINMHIIIIIINGRIHTIRLIIL
Second: DERTHHLEQLYRRMYEHWETGDEKFHRELLDPHARVDINGQDVHGMHWIEEEMRMQREHIRIEHVIIKSIEIVDGKIHMNGIILGDINGRRVNVEVRFHVIIINGKARLVEVKIL
The protease stability score of the first is higher: 0.308 for the first, 0.025 for the second.

Compared with “SEDEEKSKRDAQHWFNNWLTGDWRRTLELADPHARIDINGKELHGMHESLELLTRLIEKLGVDHIEMKKSDVVGDKMHIHGHLDIDGQKRDLTIFLLIIDGRLKHSQFELT”, “HQEDRLVFALAKDWIDNLETGDEDKMLQRADPRRQLIIDGRTFHGWENTYENMKQIRIEHLEIRDMTVVDGRIHINTHSILIINGRRFETETSIRLVVVNGVIQDVDININ” is lower in protease stability score: 0.165 for the first, 0.081 for the second.

First: NDLEERTKKAAEELREMHKTGDEELWLKNMDPNVRLEIIIGDKLLIFHGREKWREWFHKYKNARHEDNDEHVQGDKTRINVHIVFNGRRVDVEITLRVIDGRVHSEHINII
Second: DEDHELSREFLEELLKSWITGDEDVMREFADPNVRQHVDGKDLHGMEEWTRFVYHMRFHDVRIEHHRLFDGQVEIKFREDVTYNGRRVHIESRVRIVKVNGVWRLKELYVH
The protease stability score of the first is higher: 1.45 for the first, 0.858 for the second.

Going from “SEEEQDIKHFLELIERTHHTGDEKLFRDLFDPNVRLHVGDKNMHGREKALERWRLLGYEIKHLRWRDFRIFDGRVTAHGEMEGQVNGQKIKRDVEIVLVKIDGQWFIEEERVR” to “DEEEEWVRHLAHLFFEWYLTGDWQRFSELMDPTTLSVYGDKHFHGMELVVEFLSRSLDEMRIEHVEFKDIRVYNGVAHVHLRFEGKIGDKRTETDSRLLLYVVDGRIKHVKFIIK”, the protease stability score falls from 1.57 to 1.39.

Compared with “DDEEKRIQEASREMLEIMRTGDEERLKQMADPNARWHTKIDGQEVHRHGREEFIKIFRWVMERLGIDHVELHSIHIYNGQNDIDSRFHFDGRNHRILFIWVVYNGRLHHVRIEIQ”, “SKEEHETHRMIEHILKIVKTGDEENIHKNLDPHVRVNVNGRNLHGREEFVRVMYQWWHEAGVDHVHLTDFEIQGDKAHIHIDEHFNGKRHHIEIIAQKVNGKWLMREVIID” is lower in protease stability score: 1.58 for the first, 1.39 for the second.
